Results taken from paper PMC7567440.

Molecular target: pigeon ovomucoid (pigeon)
Assay: BLI; BLItz system; biotinylated POVO; recombinant flagellin

How did the Kd turn out when “recombinant flagellin of Bacillus cereus HN001 (WR52_08290) (natural protein)” was run?
Its Kd is 3.69 nM.
